{"source": "the Human Domainome abundance scans (Beltran et al. 2025)", "parents": {"B1": {"name": "DnaJ homolog subfamily C member 5, residues 16 to 77; numbered along this chain, Q9H3Z4 (parent)", "chain": "LYHVLGLDKNATSDDIKKSYRKLALKYHPDKNPDNPEAADKFKEINNAHAILTDATKRNIYD"}, "B2": {"name": "Double-stranded RNA-binding protein Staufen homolog 1, residues 183 to 249; numbered along this chain, O95793 (parent)", "chain": "KSEISQVFEIALKRNLPVNFEVARESGPPHMKNFVTKVSVGEFVGEGEGKSKKISKKNAAIAVLEEL"}}, "note": "± gives the uncertainty stated by the source."}
{"variants_of": "B1", "assay": "abundance fitness (aPCA) (normalised: wild type 0, dead -1); higher = more abundant; growth selection in yeast, the domain comes from the species named", "conditions": "Homo sapiens"}
{"variant": "T53Q", "abundance fitness": "-0.186 ± 0.083"}
{"variant": "K22V", "abundance fitness": "0.168 ± 0.086"}
{"variant": "K22P", "abundance fitness": "-0.266 ± 0.12"}
{"variant": "N32K", "abundance fitness": "-0.353 ± 0.11"}
{"variant": "N32F", "abundance fitness": "-0.24 ± 0.095"}
{"variant": "N32L", "abundance fitness": "-0.684 ± 0.073"}
{"variant": "R58E", "abundance fitness": "0.109 ± 0.12"}
{"variant": "R58G", "abundance fitness": "-0.21 ± 0.083"}
{"variant": "R58S", "abundance fitness": "-0.114 ± 0.072"}
{"variant": "R58I", "abundance fitness": "-0.503 ± 0.13"}
{"variant": "R58L", "abundance fitness": "-0.43 ± 0.075"}
{"variant": "R58D", "abundance fitness": "-0.348 ± 0.34"}
{"variant": "R58F", "abundance fitness": "-0.617 ± 0.2"}
{"variant": "Y27V", "abundance fitness": "-0.571 ± 0.095"}
{"variant": "Y27L", "abundance fitness": "-0.326 ± 0.062"}
{"variant": "K17C", "abundance fitness": "-0.361 ± 0.1"}
{"variant": "K17R", "abundance fitness": "-0.032 ± 0.061"}
{"variant": "K17G", "abundance fitness": "-0.251 ± 0.066"}
{"variant": "K17E", "abundance fitness": "0.084 ± 0.088"}
{"variant": "K17W", "abundance fitness": "-0.204 ± 0.069"}
{"variant": "G6S", "abundance fitness": "-0.559 ± 0.069"}
{"variant": "G6Y", "abundance fitness": "-0.671 ± 0.41"}
{"variant": "G6M", "abundance fitness": "-0.655 ± 0.23"}
{"variant": "G6L", "abundance fitness": "-0.625 ± 0.089"}
{"variant": "G6D", "abundance fitness": "-0.046 ± 0.12"}
{"variant": "D15L", "abundance fitness": "-0.412 ± 0.07"}
{"variant": "D15Y", "abundance fitness": "-0.888 ± 0.2"}
{"variant": "A39D", "abundance fitness": "0.033 ± 0.13"}
{"variant": "A39Y", "abundance fitness": "0.082 ± 0.14"}
{"variant": "A39Q", "abundance fitness": "-0.227 ± 0.11"}
{"variant": "H3W", "abundance fitness": "-0.301 ± 0.098"}
{"variant": "H3L", "abundance fitness": "-0.364 ± 0.074"}
{"variant": "H3G", "abundance fitness": "-0.157 ± 0.089"}
{"variant": "D40E", "abundance fitness": "-0.171 ± 0.11"}
{"variant": "D40Q", "abundance fitness": "-0.03 ± 0.22"}
{"variant": "D40M", "abundance fitness": "0.255 ± 0.11"}
{"variant": "D40N", "abundance fitness": "-0.271 ± 0.47"}
{"variant": "P33I", "abundance fitness": "-0.501 ± 0.16"}
{"variant": "N46V", "abundance fitness": "0.182 ± 0.085"}
{"variant": "N46F", "abundance fitness": "-0.065 ± 0.18"}
{"variant": "A38S", "abundance fitness": "-0.088 ± 0.092"}
{"variant": "A38K", "abundance fitness": "-0.338 ± 0.12"}
{"variant": "T56W", "abundance fitness": "-0.475 ± 0.13"}
{"variant": "T56L", "abundance fitness": "-0.421 ± 0.09"}
{"variant": "I51L", "abundance fitness": "-0.149 ± 0.061"}
{"variant": "I51E", "abundance fitness": "-0.301 ± 0.16"}
{"variant": "I51P", "abundance fitness": "-0.166 ± 0.087"}
{"variant": "L52M", "abundance fitness": "-0.395 ± 0.11"}
{"variant": "L52Q", "abundance fitness": "-0.572 ± 0.1"}
{"variant": "L52K", "abundance fitness": "-0.419 ± 0.098"}
{"variant": "I16D", "abundance fitness": "-0.567 ± 0.13"}
{"variant": "A55D", "abundance fitness": "-0.514 ± 0.37"}
{"variant": "A55N", "abundance fitness": "-0.117 ± 0.15"}
{"variant": "A55K", "abundance fitness": "-0.002 ± 0.18"}
{"variant": "P29L", "abundance fitness": "-0.472 ± 0.066"}
{"variant": "P29A", "abundance fitness": "-0.053 ± 0.071"}
{"variant": "P29V", "abundance fitness": "-0.414 ± 0.062"}
{"variant": "P29H", "abundance fitness": "-0.539 ± 0.11"}
{"variant": "E37S", "abundance fitness": "0.036 ± 0.069"}
{"variant": "A50V", "abundance fitness": "-0.19 ± 0.065"}
{"variant": "K41R", "abundance fitness": "-0.119 ± 0.073"}
{"variant": "K41P", "abundance fitness": "-1.1 ± 0.15"}
{"variant": "D62A", "abundance fitness": "-0.188 ± 0.12"}
{"variant": "A48I", "abundance fitness": "-0.769 ± 0.14"}
{"variant": "A48Y", "abundance fitness": "-0.748 ± 0.31"}
{"variant": "A48S", "abundance fitness": "-0.277 ± 0.098"}
{"variant": "A48P", "abundance fitness": "-0.384 ± 0.16"}
{"variant": "A48H", "abundance fitness": "-0.477 ± 0.2"}
{"variant": "K26S", "abundance fitness": "-0.211 ± 0.079"}
{"variant": "K26E", "abundance fitness": "0.155 ± 0.08"}
{"variant": "K26D", "abundance fitness": "-0.12 ± 0.14"}
{"variant": "A24S", "abundance fitness": "0.044 ± 0.058"}
{"variant": "T12H", "abundance fitness": "-0.349 ± 0.13"}
{"variant": "T12F", "abundance fitness": "-0.857 ± 0.13"}
{"variant": "T12S", "abundance fitness": "-0.232 ± 0.11"}
{"variant": "L23N", "abundance fitness": "-0.052 ± 0.21"}
{"variant": "L23E", "abundance fitness": "-0.067 ± 0.12"}
{"variant": "L23P", "abundance fitness": "-0.438 ± 0.14"}
{"variant": "L25V", "abundance fitness": "-0.007 ± 0.065"}
{"variant": "L25Y", "abundance fitness": "-0.299 ± 0.12"}
{"variant": "K18I", "abundance fitness": "-0.005 ± 0.13"}
{"variant": "K18N", "abundance fitness": "-0.34 ± 0.18"}
{"variant": "K18E", "abundance fitness": "0.11 ± 0.086"}
{"variant": "Y20L", "abundance fitness": "-0.505 ± 0.065"}
{"variant": "Y20C", "abundance fitness": "-0.182 ± 0.091"}
{"variant": "D14W", "abundance fitness": "-0.357 ± 0.075"}
{"variant": "L1T", "abundance fitness": "-0.542 ± 0.22"}
{"variant": "L1W", "abundance fitness": "-0.352 ± 0.099"}
{"variant": "L1S", "abundance fitness": "-0.198 ± 0.11"}
{"variant": "H49A", "abundance fitness": "0.009 ± 0.099"}
{"variant": "K9Y", "abundance fitness": "-0.163 ± 0.18"}
{"variant": "K9G", "abundance fitness": "-0.215 ± 0.08"}
{"variant": "K9H", "abundance fitness": "-0.341 ± 0.19"}
{"variant": "K9C", "abundance fitness": "-0.246 ± 0.14"}
{"variant": "K9N", "abundance fitness": "-0.394 ± 0.16"}
{"variant": "Y2L", "abundance fitness": "-0.653 ± 0.062"}
{"variant": "Y2S", "abundance fitness": "-0.516 ± 0.085"}
{"variant": "N10T", "abundance fitness": "-0.073 ± 0.13"}
{"variant": "D30C", "abundance fitness": "-0.221 ± 0.13"}
{"variant": "D30K", "abundance fitness": "0.084 ± 0.099"}
{"variant": "D30F", "abundance fitness": "-0.828 ± 0.28"}
{"variant": "S13H", "abundance fitness": "-0.496 ± 0.15"}
{"variant": "S13D", "abundance fitness": "0.068 ± 0.11"}
{"variant": "N35T", "abundance fitness": "-0.143 ± 0.086"}
{"variant": "N35W", "abundance fitness": "-0.317 ± 0.095"}
{"variant": "N35R", "abundance fitness": "-0.282 ± 0.082"}
{"variant": "F42Q", "abundance fitness": "-0.233 ± 0.078"}
{"variant": "F42K", "abundance fitness": "-0.188 ± 0.12"}
{"variant": "K57C", "abundance fitness": "-0.672 ± 0.14"}
{"variant": "K57P", "abundance fitness": "-0.593 ± 0.16"}
{"variant": "D34V", "abundance fitness": "-0.591 ± 0.056"}
{"variant": "D34H", "abundance fitness": "-0.411 ± 0.2"}
{"variant": "D34P", "abundance fitness": "-0.623 ± 0.1"}
{"variant": "I45N", "abundance fitness": "-0.381 ± 0.18"}
{"variant": "I45W", "abundance fitness": "-0.841 ± 0.089"}
{"variant": "I45F", "abundance fitness": "-0.747 ± 0.13"}
{"variant": "S19C", "abundance fitness": "-0.088 ± 0.12"}
{"variant": "S19T", "abundance fitness": "-0.106 ± 0.12"}
{"variant": "L7E", "abundance fitness": "-0.298 ± 0.079"}
{"variant": "L7W", "abundance fitness": "-0.949 ± 0.096"}
{"variant": "L7V", "abundance fitness": "-0.103 ± 0.075"}
{"variant": "K31A", "abundance fitness": "-0.065 ± 0.085"}
{"variant": "K31F", "abundance fitness": "-0.371 ± 0.092"}
{"variant": "K31M", "abundance fitness": "-0.521 ± 0.17"}
{"variant": "K31Q", "abundance fitness": "-0.06 ± 0.12"}
{"variant": "I60T", "abundance fitness": "0.054 ± 0.12"}
{"variant": "D8N", "abundance fitness": "-0.277 ± 0.11"}
{"variant": "A11G", "abundance fitness": "-0.536 ± 0.1"}
{"variant": "A11N", "abundance fitness": "-0.125 ± 0.36"}
{"variant": "A11P", "abundance fitness": "-0.536 ± 0.23"}
{"variant": "A11S", "abundance fitness": "-0.578 ± 0.14"}
{"variant": "A11M", "abundance fitness": "-1.6 ± 0.38"}
{"variant": "Y61G", "abundance fitness": "0.226 ± 0.063"}
{"variant": "Y61L", "abundance fitness": "-0.09 ± 0.087"}
{"variant": "Y61A", "abundance fitness": "0.165 ± 0.089"}
{"variant": "E44Q", "abundance fitness": "-0.301 ± 0.13"}
{"variant": "N59L", "abundance fitness": "-0.139 ± 0.063"}
{"variant": "N59E", "abundance fitness": "0.152 ± 0.11"}
{"variant": "V4R", "abundance fitness": "-0.765 ± 0.07"}
{"variant": "V4M", "abundance fitness": "-0.078 ± 0.096"}
{"variants_of": "B2", "assay": "abundance fitness (aPCA) (normalised: wild type 0, dead -1); higher = more abundant; growth selection in yeast, the domain comes from the species named", "conditions": "Homo sapiens"}
{"variant": "K57V", "abundance fitness": "-0.218 ± 0.24"}
{"variant": "K57S", "abundance fitness": "-0.43 ± 0.32"}
{"variant": "K57T", "abundance fitness": "0.17 ± 0.28"}
{"variant": "K57L", "abundance fitness": "-0.163 ± 0.19"}
{"variant": "K57F", "abundance fitness": "-0.837 ± 0.42"}
{"variant": "E65A", "abundance fitness": "-0.038 ± 0.042"}
{"variant": "E65G", "abundance fitness": "-0.079 ± 0.043"}
{"variant": "E65V", "abundance fitness": "-0.584 ± 0.045"}
{"variant": "E65I", "abundance fitness": "-0.573 ± 0.14"}
{"variant": "E65S", "abundance fitness": "0.003 ± 0.048"}
{"variant": "E65F", "abundance fitness": "-0.737 ± 0.17"}
{"variant": "E65T", "abundance fitness": "-0.082 ± 0.044"}
{"variant": "E65Y", "abundance fitness": "-0.212 ± 0.082"}
{"variant": "E65L", "abundance fitness": "-0.417 ± 0.044"}
{"variant": "E65D", "abundance fitness": "-0.081 ± 0.069"}
{"variant": "E65M", "abundance fitness": "-0.336 ± 0.054"}
{"variant": "E65C", "abundance fitness": "-0.348 ± 0.079"}
{"variant": "E65Q", "abundance fitness": "-0.016 ± 0.059"}
{"variant": "E65P", "abundance fitness": "-0.386 ± 0.054"}
{"variant": "E65K", "abundance fitness": "0.118 ± 0.055"}
{"variant": "E65R", "abundance fitness": "0.093 ± 0.036"}
{"variant": "E65H", "abundance fitness": "-0.051 ± 0.1"}
{"variant": "E65W", "abundance fitness": "-0.388 ± 0.065"}
{"variant": "L64E", "abundance fitness": "-0.433 ± 0.055"}
{"variant": "L64A", "abundance fitness": "-0.473 ± 0.049"}
{"variant": "L64F", "abundance fitness": "-1.15 ± 0.16"}
{"variant": "L64V", "abundance fitness": "-0.5 ± 0.05"}
